# Assay results as given in paper PMC3075667.
# pIC50, pKd: −log10 of the molar value.
# Key:
# Δ79AAG wild type (human) [1] = biological target: Δ79AAG wild type (human) (UniProt P29372); assay: EMSA
# Δ79AAG wild type (human) [2] = biological target: Δ79AAG wild type (human) (UniProt P29372); assay: competition
# [3] = 3,N4-ethenocytosine opposite G (G19)
# Sequence of UniProt P29372 (P29372 84-298, stated change not applied): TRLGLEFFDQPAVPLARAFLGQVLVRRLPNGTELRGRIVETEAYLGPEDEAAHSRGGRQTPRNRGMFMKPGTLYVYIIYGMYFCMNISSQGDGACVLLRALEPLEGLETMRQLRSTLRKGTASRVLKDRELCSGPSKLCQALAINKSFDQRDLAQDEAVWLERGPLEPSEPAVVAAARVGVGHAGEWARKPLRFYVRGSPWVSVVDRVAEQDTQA
Substance,"pKd (Δ79AAG wild type (human) [1]; 1,N6-ethenoadenine opposite T)","pIC50 (Δ79AAG wild type (human) [2]; 1,N6-ethenoadenine opposite T)",pKd (Δ79AAG wild type (human) [1]; [3]),pIC50 (Δ79AAG wild type (human) [2]; [3])
ϵA:T 13-mer,7.34,6.79,,
ϵC:G 13-mer,,,7.68,7.41
